Assay [1] addresses T1, Human CD137 (TNR9_Human) (human, UniProt Q07011 24-255). Briefly: cell-based or functional assay.
The target of the next assay is Human CD40 (human, UniProt P25942 21-277). Briefly: cell-based or functional assay.
Assay [2] has as its target T2, Human CD137 shuffle 2 (amino acids 139-161 replaced by wild boar CD137) (human, amino acids 139-161 from wild …, UniProt Q07011 24-255).
T2 construct: also called shuffle construct 2
T2 chain: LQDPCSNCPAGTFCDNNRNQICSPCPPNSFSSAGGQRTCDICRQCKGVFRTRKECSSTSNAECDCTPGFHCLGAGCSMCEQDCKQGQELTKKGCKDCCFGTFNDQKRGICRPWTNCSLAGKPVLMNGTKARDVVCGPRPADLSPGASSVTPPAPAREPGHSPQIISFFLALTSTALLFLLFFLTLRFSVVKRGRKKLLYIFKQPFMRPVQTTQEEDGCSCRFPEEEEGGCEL
Briefly: flow cytometry on transfected HEK293T-17 cells, 1 µg/mL antibody. On the procedure: (§1) 3×10⁶ HEK293T-17 cells were seeded in T75 culture flasks (Greiner Bio-One, cat. no. 658175) in 20 mL RPMI 1640 GlutaMAX medium containing 10% FCS (Biochrom, cat. no. S 0115). After O/N incubation, cells were transiently […] with expression vectors encoding the shuffle constructs or the wild boar, African elephant or human CD137 downstream of a constitutively active human elongation factor-1 alpha (EF-1 alpha) promotor using TransIT®-LT1 Transfection Reagent, Mirus Bio (VWR International, cat. no. 731-0029), according to the manufacturer's instructions. The next day, cells were harvested using 1.5 mL Accutase (Sigma Aldrich, cat. no. A6964) (incubation at 37° C. for 5 min.) and flow cytometry was performed, essentially as described in Example 4, to measure surface expression of the shuffle constructs and the human, African elephant and wild boar CD137 and to measure binding of the antibody clones to the different shuffle constructs. To measure cell surface expression of the constructs, transduced cells were incubated with 1 μg/mL goat polyclonal anti-human CD137 (R&D Systems, cat. no. AF838) in FACS buffer (D-PBS supplemented with 5 mM EDTA [Sigma Aldrich, cat. no. 03690] and 5% (v/v) fetal bovine serum [FBS, Biochrom, cat. no. S 0115]) (4° C., 20 min.), followed by incubation with APC-labeled anti-goat IgG (H+L) (R&D Systems, cat. no. F0108) (4° C., 20 min.). Binding of the different CD137 antibody clones to cells expressing the shuffle constructs was measured by incubation of the transduced cells with 1 μg/mL of the antibody clones, followed by APC-labeled AffiniPure F(ab′)2 Fragment (1:50 final dilution; Jackson, cat. no. 109-136-127).

In assay [3] the target is T3, Human CD137 shuffle 1 (amino acids 162-186 replaced by wild boar CD137) (human, amino acids 162-186 from wild …, UniProt Q07011 24-255).
T3 construct: also called shuffle construct 1
T3 chain: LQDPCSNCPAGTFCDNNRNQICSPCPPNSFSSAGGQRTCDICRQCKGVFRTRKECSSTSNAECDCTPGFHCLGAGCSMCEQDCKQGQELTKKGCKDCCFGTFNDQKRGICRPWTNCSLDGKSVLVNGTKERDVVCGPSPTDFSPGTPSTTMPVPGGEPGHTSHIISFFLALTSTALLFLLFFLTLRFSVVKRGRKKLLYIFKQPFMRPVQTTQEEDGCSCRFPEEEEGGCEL
Described as above. On the procedure: as §1

The target of assay [4] is T4, Human CD137 shuffle 5 (amino acids 48-88 replaced by African elephant CD137) (human, amino acids 48-88 from African …, UniProt Q07011 24-255).
T4 construct: also called shuffle construct 5
T4 chain: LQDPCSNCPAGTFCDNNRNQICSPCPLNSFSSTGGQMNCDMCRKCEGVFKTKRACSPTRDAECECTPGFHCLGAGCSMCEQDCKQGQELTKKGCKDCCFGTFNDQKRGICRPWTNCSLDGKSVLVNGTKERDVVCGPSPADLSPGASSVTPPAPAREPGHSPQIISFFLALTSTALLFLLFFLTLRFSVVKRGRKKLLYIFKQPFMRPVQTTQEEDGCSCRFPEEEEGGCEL
The assay is described as above. As to the method: as §1

Assay [5] deals with T5, Human CD137 shuffle 4 (amino acids 89-114 replaced by wild boar CD137) (human, amino acids 89-114 from wild boar, UniProt Q07011 24-255).
T5 construct: also called shuffle construct 4
T5 chain: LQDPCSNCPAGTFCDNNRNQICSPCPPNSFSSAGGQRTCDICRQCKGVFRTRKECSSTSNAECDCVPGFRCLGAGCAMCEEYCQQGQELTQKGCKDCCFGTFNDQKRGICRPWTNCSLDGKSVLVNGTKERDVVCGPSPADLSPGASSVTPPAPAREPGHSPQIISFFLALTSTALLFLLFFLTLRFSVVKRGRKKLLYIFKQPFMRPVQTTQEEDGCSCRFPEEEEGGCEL
The description is as above. As to the method:
as §1

Assay [6] addresses T6, Human CD137 shuffle 3 (amino acids 115-138 replaced by wild boar CD137) (human, amino acids 115-138 from wild …, UniProt Q07011 24-255).
T6 construct: also called shuffle construct 3
T6 chain: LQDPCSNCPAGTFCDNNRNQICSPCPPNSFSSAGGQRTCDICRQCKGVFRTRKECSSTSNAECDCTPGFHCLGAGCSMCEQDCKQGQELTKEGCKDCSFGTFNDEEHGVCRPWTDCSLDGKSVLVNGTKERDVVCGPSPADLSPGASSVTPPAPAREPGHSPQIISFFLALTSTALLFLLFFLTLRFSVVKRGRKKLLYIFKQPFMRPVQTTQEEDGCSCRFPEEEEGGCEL
The assay is described as above. On the procedure:
as §1

The target of assay [7] is T1, Human CD137 (TNR9_Human). Briefly: flow cytometry, HEK293-T17 cells transiently transfected with human CD137, antibody at 1 µg/mL, APC-labeled F(ab')2 secondary. On the procedure: (§2) FIG. 4: Binding of CD137 antibody clones to CD137 shuffle constructs expressed on HEK293-T17 cells. HEK293-T17 cells were transfected with the CD137 shuffle constructs, and with human CD137 (hCD137 wt), African elephant of wild boar CD137, as indicated. Binding of the different CD137 antibody clones to these constructs expressed on HEK293-T17 cells was measured by flow cytometry. Staining with polyclonal anti-CD137 antibody is shown as a control.
as §1
(Flow cytometry measures light scatter and fluorescence of single cells or particles in a stream.)

Assay [8] has as its target T1, Human CD137 (TNR9_Human). Description: flow cytometry, HEK293-T17 cells transiently transfected with human CD137, antibody at 1 µg/mL, APC-labeled F(ab')2 secondary [cont.]. On the procedure: as §2, §1

Human CD40, sequence (P25942 21-277): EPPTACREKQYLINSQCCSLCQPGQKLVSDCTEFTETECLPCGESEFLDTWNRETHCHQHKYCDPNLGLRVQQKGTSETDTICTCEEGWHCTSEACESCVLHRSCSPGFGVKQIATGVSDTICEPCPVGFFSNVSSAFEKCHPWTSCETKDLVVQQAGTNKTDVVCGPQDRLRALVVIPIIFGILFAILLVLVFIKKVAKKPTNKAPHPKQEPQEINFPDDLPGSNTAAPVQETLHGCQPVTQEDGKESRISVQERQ

B1: CD40-001-FEALxCD137-003-FEAR (bispecific antibody, human IgG1, kappa)
heavy 1: EVQLQQSGPDLVKPGASVKISCKTSGYTFTEYIMHWVKQSHGKSLEWIGGIIPNNGGTSYNQKFKDKATMTVDKSSSTGYMELRSLTSEDSAVYYCTRREVYGRNYYALDYWGQGTLVTVSSASTKGPSVFPLAPSSKSTSGGTAALGCLVKDYFPEPVTVSWNSGALTSGVHTFPAVLQSSGLYSLSSVVTVPSSSLGTQTYICNVNHKPSNTKVDKRVEPKSCDKTHTCPPCPAPEFEGGPSVFLFPPKPKDTLMISRTPEVTCVVVAVSHEDPEVKFNWYVDGVEVHNAKTKPREEQYNSTYRVVSVLTVLHQDWLNGKEYKCKVSNKALPAPIEKTISKAKGQPREPQVYTLPPSREEMTKNQVSLTCLVKGFYPSDIAVEWESNGQPENNYKTTPPVLDSDGSFLLYSKLTVDKSRWQQGNVFSCSVMHEALHNHYTQKSLSLSPGK
light 1: DIQMTQTTSSLSASLGDRVTITCSASQGINNYLNWYQQKPDGTVKLLIYYTSSLHSGVPSRFSGSGSGTDYSLTISNLEPEDIATYYCQQYSNLPYTFGGGTKLEIKRTVAAPSVFIFPPSDEQLKSGTASVVCLLNNFYPREAKVQWKVDNALQSGNSQESVTEQDSKDSTYSLSSTLTLSKADYEKHKVYACEVTHQGLSSPVTKSFNRGEC
heavy 2: QSVEESGGRLVTPGTPLTLTCTASGFTISSYHMIWVRQAPGEGLEWIGDIYGGTATTDYASWAKGRFTISKTSTTVDLKMTSLTTEDTATYFCARARYSGGSYANYVFNLWGQGTLVTVSSASTKGPSVFPLAPSSKSTSGGTAALGCLVKDYFPEPVTVSWNSGALTSGVHTFPAVLQSSGLYSLSSVVTVPSSSLGTQTYICNVNHKPSNTKVDKRVEPKSCDKTHTCPPCPAPEFEGGPSVFLFPPKPKDTLMISRTPEVTCVVVAVSHEDPEVKFNWYVDGVEVHNAKTKPREEQYNSTYRVVSVLTVLHQDWLNGKEYKCKVSNKALPAPIEKTISKAKGQPREPQVYTLPPSREEMTKNQVSLTCLVKGFYPSDIAVEWESNGQPENNYKTTPPVLDSDGSFFLYSRLTVDKSRWQQGNVFSCSVMHEALHNHYTQKSLSLSPGK
light 2: DIVMTQTPASVEAAVGGTVTIKCQASQSISSYLAWYQQKPGQPPKLLIYRTSTLESGVPSRFKGSGSGTEFTLTISDLESADAATYYCQGYDWSSSNRYDNTFGGGTEVVVKRTVAAPSVFIFPPSDEQLKSGTASVVCLLNNFYPREAKVQWKVDNALQSGNSQESVTEQDSKDSTYSLSSTLTLSKADYEKHKVYACEVTHQGLSSPVTKSFNRGEC
On to B1, for which, in the assay with Human CD137 (TNR9_Human) [1], the “luciferase activity (RLU) of NF-KB/293/GFP-Luc cells transduced with CD137, incubated with K562_CD40” value was about 100 ng/mL. Moreover, the “luciferase activity (RLU) of NF-KB/293/GFP-Luc cells transduced with CD40, incubated with K562_CD137” value with Human CD40 was about 100 ng/mL.

B2: CD40-001-FEALxCD137-004-FEAR (bispecific antibody, human IgG1, kappa)
heavy 1: B1 heavy 1
light 1: B1 light 1
heavy 2: QSLEESGGRLVTPGTPLTLTCTASGFSLSRYDMSWVRQAPGKGLEYIGVISSSGGTNYANWAKGRFTISKTSTTVDLKITSPTTEDTATYFCAREGDYWDFNLWGPGTLVTVSSASTKGPSVFPLAPSSKSTSGGTAALGCLVKDYFPEPVTVSWNSGALTSGVHTFPAVLQSSGLYSLSSVVTVPSSSLGTQTYICNVNHKPSNTKVDKRVEPKSCDKTHTCPPCPAPEFEGGPSVFLFPPKPKDTLMISRTPEVTCVVVAVSHEDPEVKFNWYVDGVEVHNAKTKPREEQYNSTYRVVSVLTVLHQDWLNGKEYKCKVSNKALPAPIEKTISKAKGQPREPQVYTLPPSREEMTKNQVSLTCLVKGFYPSDIAVEWESNGQPENNYKTTPPVLDSDGSFFLYSRLTVDKSRWQQGNVFSCSVMHEALHNHYTQKSLSLSPGK
light 2: AQVLTQTPSSVSAAVGGTVTINCQASQSISNLLAWYQQKPGQPPKLLIYGASTLASGVPSRFSGSGSGTEFTLTISDLESDDAATYYCAGGFPGLDTVAAFGGGTEAVVTRTVAAPSVFIFPPSDEQLKSGTASVVCLLNNFYPREAKVQWKVDNALQSGNSQESVTEQDSKDSTYSLSSTLTLSKADYEKHKVYACEVTHQGLSSPVTKSFNRGEC
With B2, the “luciferase activity (RLU) of NF-KB/293/GFP-Luc cells transduced with CD137, incubated with K562_CD40” value with Human CD137 (TNR9_Human) [1] is about 100 ng/mL. In the assay with Human CD40, the “luciferase activity (RLU) of NF-KB/293/GFP-Luc cells transduced with CD40, incubated with K562_CD137” value was about 100 ng/mL.

B3: CD137 antibody clone 001 (rabbit) (antibody, human IgG1, kappa, V domains shown)
VH: QSVEESGGRLVTPGTPLTLTCTVSGFSLSSYAVSWVRQAPGKGLEWIGVIWNNGATHYATWAKGRFTISKASTTVDLKVTSPTTEDTATYFCARSANDAWSTYSDLWGQGTLVTVSS
VL: DIVMTQTPASVEAAVGGTVTIKCQASQTITNYLSWYQQKPGQPPKLLIYKASTLTSGVSSRFKGSGSGTEFTLTISDLESDDAATYYCQNYYYGSSSGYGFVFGGGTEVVVKR
notes: also called Clone 1; CD137 clone 001
For B3, the binding result (in [2]; in assay [3]; in [4]; in assay [5]; in assay [6]; in the assay with Human CD137 (TNR9_Human) [7]) was “binds” in each case.

B4: CD137 antibody clone 012 (rabbit) (antibody, human IgG1, kappa, V domains shown)
VH: QSVEESGGRLVTPGTPLTLTCTVSGFSLSDYYMTWVRQAPGKGLEYIGIMSGSGSTYYASWAKGRFTISKTSSTTLELKITSPTTEDTAIYFCARDGDYAGWGYATGAFDPWGPGTLVTVSS
VL: AAVLTQTPSPVSAAVGGTVTISCQASQSVVGNSLLSWFQKKPGQPPKLLIYSASSLASGVPSRFKGSGSGTQFTLTISDLESDDAATYYCTGRYNSDTDTFVFGGGTEVVVKR
notes: also called Clone 12; CD137 clone 012
In the case of B4, the binding result (with Human CD137 (TNR9_Human) [8]; in [2]; in [3]; in [4]; in [5]; in assay [6]) was “binds” each time.

The values above are taken from patent US20210317225A1 (Genmab, published 2021).
